Read-outs that look alike come from different tables or passages of the source.
What was measured:
[1] = molecular target: MBP-Vpu fusion protein (His8-MBP-linker-full-length HIV-1 Vpu, Q36C) (HIV-1); experiment: SEC
[2] = molecular target: MBP-Vpu fusion protein (His8-MBP-linker-full-length HIV-1 Vpu, Q36C) (HIV-1); experiment: SEC; remark: listed apart in the source
[3] = molecular target: MBP-Vpu fusion protein spin-labeled at residue Q36C (HIV-1); experiment: DEER
[4] = molecular target: MBP-Vpu fusion protein spin-labeled at residue Q36C (HIV-1); experiment: DEER; remark: listed apart in the source
[5] = molecular target: MBP-Vpu fusion protein spin-labeled at residue Q36C (HIV-1); experiment: DEER; remark: listed apart in the source

MBP-Vpu fusion protein (His8-MBP-linker-full-length HIV-1 Vpu, Q36C)
stoichiometry N [1]: 5
stoichiometry N [2]: 5

MBP-Vpu fusion protein spin-labeled at residue Q36C
stoichiometry N [3]: 5
DEER modulation depth [4]: 0.24
stoichiometry N [4]: > 3
DEER modulation depth [5]: 0.56

— article PMC10257199
